Measurements reported in patent US20110263454A1, “Methods of Identifying Functional Characteristics of Promoters, Transcription Modifying Proteins and Transcription Modulating Agents” (Salk Institute for Biological Studies, priority 2008, published 2011).

B1: RXRb: Retinoic X Receptor β (NR2B2), cDNA driver (protein, UniProt P28702 1-533, looked up)
Retinoic acid receptor …: MSWAARPPFLPQRHAAGQCGPVGVRKEMHCGVASRWRRRRPWLDPAAAAAAAVAGGEQQTPEPEPGEAGRDGMGDSGRDSRSPDSSSPNPLPQGVPPPSPPGPPLPPSTAPSLGGSGAPPPPPMPPPPLGSPFPVISSSMGSPGLPPPAPPGFSGPVSSPQINSTVSLPGGGSGPPEDVKPPVLGVRGLHCPPPPGGPGAGKRLCAICGDRSSGKHYGVYSCEGCKGFFKRTIRKDLTYSCRDNKDCTVDKRQRNRCQYCRYQKCLATGMKREAVQEERQRGKDKDGDGEGAGGAPEEMPVDRILEAELAVEQKSDQGVEGPGGTGGSGSSPNDPVTNICQAADKQLFTLVEWAKRIPHFSSLPLDDQVILLRAGWNELLIASFSHRSIDVRDGILLATGLHVHRNSAHSAGVGAIFDRVLTELVSKMRDMRMDKTELGCLRAIILFNPDAKGLSNPSEVEVLREKVYASLETYCKQKYPEQQGRFAKLLLRLPALRSIGLKCLEHLFFFKLIGDTPIDTFLMEMLEAPHQLA
B2: PXR: Pregnane X Receptor (NR1I2), cDNA driver (protein, UniProt O75469 1-434, looked up)
Nuclear receptor subfamily 1 …: MEVRPKESWNHADFVHCEDTESVPGKPSVNADEEVGGPQICRVCGDKATGYHFNVMTCEGCKGFFRRAMKRNARLRCPFRKGACEITRKTRRQCQACRLRKCLESGMKKEMIMSDEAVEERRALIKRKKSERTGTQPLGVQGLTEEQRMMIRELMDAQMKTFDTTFSHFKNFRLPGVLSSGCELPESLQAPSREEAAKWSQVRKDLCSLKVSLQLRGEDGSVWNYKPPADSGGKEIFSLLPHMADMSTYMFKGIISFAKVISYFRDLPIEDQISLLKGAAFELCQLRFNTVFNAETGTWECGRLSYCLEDTAGGFQQLLLEPMLKFHYMLKKLQLHEEEYVLMQAISLFSPDRPGVLQHRVVDQLQEQFAITLKSYIECNRPQPAHRFLFLKIMAMLTELRSINAQHTQRLLRIQDIHPFATPLMQELFGITGS
B3: FXR: Farnesoid X Receptor (NR1H4), cDNA driver (protein, UniProt Q96RI1 1-486, looked up)
Bile acid receptor: MVMQFQGLENPIQISPHCSCTPSGFFMEMMSMKPAKGVLTEQVAGPLGQNLEVEPYSQYSNVQFPQVQPQISSSSYYSNLGFYPQQPEEWYSPGIYELRRMPAETLYQGETEVAEMPVTKKPRMGASAGRIKGDELCVVCGDRASGYHYNALTCEGCKGFFRRSITKNAVYKCKNGGNCVMDMYMRRKCQECRLRKCKEMGMLAECMYTGLLTEIQCKSKRLRKNVKQHADQTVNEDSEGRDLRQVTSTTKSCREKTELTPDQQTLLHFIMDSYNKQRMPQEITNKILKEEFSAEENFLILTEMATNHVQVLVEFTKKLPGFQTLDHEDQIALLKGSAVEAMFLRSAEIFNKKLPSGHSDLLEERIRNSGISDEYITPMFSFYKSIGELKMTQEEYALLTAIVILSPDRQYIKDREAVEKLQEPLLDVLQKLCKIHQPENPQHFACLLGRLTELRTFNHHHAEMLMSWRVNDHKFTPLLCEIWDVQ
B4: PPARd: Peroxisome proliferator activated receptor δ (NR1C2), cDNA driver (protein, UniProt Q03181 1-441, looked up)
Peroxisome …: MEQPQEEAPEVREEEEKEEVAEAEGAPELNGGPQHALPSSSYTDLSRSSSPPSLLDQLQMGCDGASCGSLNMECRVCGDKASGFHYGVHACEGCKGFFRRTIRMKLEYEKCERSCKIQKKNRNKCQYCRFQKCLALGMSHNAIRFGRMPEAEKRKLVAGLTANEGSQYNPQVADLKAFSKHIYNAYLKNFNMTKKKARSILTGKASHTAPFVIHDIETLWQAEKGLVWKQLVNGLPPYKEISVHVFYRCQCTTVETVRELTEFAKSIPSFSSLFLNDQVTLLKYGVHEAIFAMLASIVNKDGLLVANGSGFVTREFLRSLRKPFSDIIEPKFEFAVKFNALELDDSDLALFIAAIILCGDRPGLMNVPRVEAIQDTILRALEFHLQANHPDAQYLFPKLLQKMADLRQLVTEHAQMMQRIKKTETETSLHPLLQEIYKDMY
B5: CAR: Constitutive Androstane Receptor (NR1I3), cDNA driver (protein, UniProt Q14994 1-352, looked up)
Nuclear receptor subfamily 1 …: MASREDELRNCVVCGDQATGYHFNALTCEGCKGFFRRTVSKSIGPTCPFAGSCEVSKTQRRHCPACRLQKCLDAGMRKDMILSAEALALRRAKQAQRRAQQTPVQLSKEQEELIRTLLGAHTRHMGTMFEQFVQFRPPAHLFIHHQPLPTLAPVLPLVTHFADINTFMVLQVIKFTKDLPVFRSLPIEDQISLLKGAAVEICHIVLNTTFCLQTQNFLCGPLRYTIEDGARVSPTVGFQVEFLELLFHFHGTLRKLQLQEPEYVLLAAMALFSPDRPGVTQRDEIDQLQEEMALTLQSYIKGQQRRPRDRFLYAKLLGLLAELRSINEAYGYQIQHIQGLSAMMPLLQEICS

How the values were obtained:
hMDR1 promoter = assay: NHR-promoter luciferase screen, hMDR1 promoter; assay type: cell-based, human; conditions: for Luc. act., normalized to lacZ / Normalized Luc. act., normalized to control: MDR1 promoter, HR/ligand component; for hMDR1 promoter reporter activity: transcription factor +/- ligand, control = 1.00
In short: (§1)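 CV-1 cells were co-transfected with 50 ng NHR (homodimer or NHR/RXR heterodimer), 100 ng promoter-luciferase construct and 50 ng LacZ. Luciferase was normalized to LacZ and to a no-NHR/no-ligand control.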

mADRP promoter = assay: NHR-promoter luciferase screen, mADRP promoter; assay type: cell-based, mouse; conditions: for Luc. act., normalized to lacZ / Normalized Luc. act., normalized to control: ADRP promoter, HR/ligand component; for mADRP promoter reporter activity: transcription factor +/- ligand, control = 1.00
In short: as §1

hPOMC promoter = assay: NHR-promoter luciferase screen, hPOMC promoter; assay type: cell-based, human; conditions: for Normalized Luc. act., normalized to control / Luc. act., normalized to lacZ: hPOMC promoter, HR/ligand component; for hPOMC promoter reporter activity: transcription factor +/- ligand, control = 1.00
In short: as §1

mAgrp promoter = assay: NHR-promoter luciferase screen, mAgrp promoter; assay type: cell-based, mouse; conditions: for Results of assays of transcription factor (+/- ligand) with mAgrp: Table 6d, luciferase activity relative to control (control = 1.00); for Luc. act., normalized to lacZ / Normalized Luc. act., normalized to control: mAgrp promoter, HR component with or without ligand; for Normalized Luc. act., normalized to control: relative to control
In short: as §1

mDio1 promoter = assay: NHR-promoter luciferase screen, mDio1 promoter; assay type: cell-based, mouse; conditions: for Luc. act., normalized to lacZ / Normalized Luc. act., normalized to control: Dio1, HR component without or with its ligand; for mDio1 promoter reporter activity: transcription factor +/- ligand, control = 1.00
In short: as §1

hTNFa promoter = assay: NHR-promoter luciferase screen, hTNFa promoter; assay type: cell-based, human; conditions: for Luc. act., normalized to lacZ / Normalized Luc. act., normalized to control: TNFa promoter, HR component without or with ligand; for hTNFa promoter reporter activity: transcription factor +/- ligand, control = 1.00
In short: as §1

Row | Molecule | Luc. act., normalized to lacZ (hMDR1 promoter) | Normalized Luc. act., normalized to control (hMDR1 promoter) | hMDR1 promoter reporter activity (hMDR1 promoter) | Luc. act., normalized to lacZ (mADRP promoter) | Normalized Luc. act., normalized to control (mADRP promoter) | mADRP promoter reporter activity (mADRP promoter) | Normalized Luc. act., normalized to control (hPOMC promoter) | hPOMC promoter reporter activity (hPOMC promoter) | Results of assays of transcription factor (+/- ligand) with mAgrp (mAgrp promoter) | Luc. act., normalized to lacZ (mAgrp promoter) | Normalized Luc. act., normalized to control (mAgrp promoter) | Luc. act., normalized to lacZ (mDio1 promoter) | Normalized Luc. act., normalized to control (mDio1 promoter) | mDio1 promoter reporter activity (mDio1 promoter) | Luc. act., normalized to lacZ (hTNFa promoter) | Normalized Luc. act., normalized to control (hTNFa promoter) | hTNFa promoter reporter activity (hTNFa promoter) | Luc. act., normalized to lacZ (hPOMC promoter)
1 | B1 | 0.1 | 0.3 | 0.28 | 676.1 | 1.4 | 1.36 | 0.0 | 0.00 | 1.30 | 51.6 | 1.3 | 4.4 | 1.0 | 0.99 | 1036.3 | 1.1 | 1.05 | 
2 | B2 | 0.3 | 1.1 | 1.10 | 1021.2 | 2.1 | 2.05 | 1.0 | 0.98 | 1.51 | 60.0 | 1.5 | 11.3 | 2.5 | 2.52 | 1152.4 | 1.2 | 1.17 | 4.2
3 | B3 | 0.2 | 0.6 | 0.61 | 658.3 | 1.3 | 1.32 | 0.6 | 0.65 | 1.14 | 45.1 | 1.1 | 7.2 | 1.6 | 1.62 | 974.6 | 1.0 | 0.99 | 2.8
4 | B4 | 0.3 | 0.9 | 0.90 | 694.0 | 1.4 | 1.39 | 0.9 | 0.89 | 1.32 | 52.4 | 1.3 | 10.0 | 2.2 | 2.23 | 1138.3 | 1.2 | 1.16 | 3.8
5 | B5 | 0.2 | 0.7 | 0.68 | 623.0 | 1.3 | 1.25 | 1.0 | 1.00 | 1.06 | 42.2 | 1.1 | 4.5 | 1.0 | 1.01 | 908.2 | 0.9 | 0.92 | 4.3
